Laboratory results from patent US20090047282.

Columns and labels:
[1] = test system: Shh-(24-45), 22-mer peptide of amino acids 24 to 45 of human Shh, biotin at the C-terminal lysine
[2] = test system: human Shh-N (cysteine residue at the 24th position up to the glycine residue at the 197th position of human Shh), E. coli recombinant, histidine tag excised with enterokinase

Sequence of Shh-(24-45), 22-mer peptide of amino acids 24 to 45 of human Shh, biotin at the C-terminal lysine (chain, as listed by the source): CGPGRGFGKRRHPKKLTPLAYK

Substance	radioactivity of [3H] palmitic acid added to the substrate peptide against the peptide's concentration (reaction time 1 hour) [1]	radioactivity of [3H] palmitic acid added to the substrate peptide against the reaction time (10 uM peptide) [1]	radioactivity of [14C] palmitic acid in the band of Shh-N after SDS-PAGE (HHAT activity) [2]
human HHAT expressed with the Bac-to-Bac baculovirus system (HHAT enzyme solution of Example 5)	the activity was increased depending on the concentration (FIG. 3)	the activity was increased for 2 hours (FIG. 4)	–
human HHAT (human hedgehog acyltransferase) with a C-terminal FLAG-Tag, crude enzyme solution from transfected HEK293 cells	–	–	Only when the human HHAT crude enzyme solution and the Shh-N were reacted, a band having a radioactivity was recognized in the vicinity of the molecular weight of 21 kDa corresponding to the Shh-N
